Paper PMC11466962, “Nup358 restricts ER-mitochondria connectivity by modulating mTORC2/Akt/GSK3β signalling” (EMBO Reports, 2024)

Biological target: T1, GST-Nup358-MC2 (2012–2771 aa) (human, UniProt P49792 2012-2771)
T1 construct: also called GST-tagged Nup358-MC2; source: E. coli BL21 CodonPlus RIL (DE3), purified (Glutathione Agarose Beads)
Assay: co-IP; in vitro: 2 µM MBP protein incubated with 1.5 µM GST-Nup358-MC2 in 25 mM Tris-HCl pH 7.4, 150 mM NaCl, 5% glycerol, 0.01% Tween20, 2 h, 4 °C; MBP proteins immunoprecipitated with anti-MBP antibody on Protein G Dynabeads; western blot for Nup358-MC2
Conditions: both partners purified

T1 sequence (P49792 2012-2771): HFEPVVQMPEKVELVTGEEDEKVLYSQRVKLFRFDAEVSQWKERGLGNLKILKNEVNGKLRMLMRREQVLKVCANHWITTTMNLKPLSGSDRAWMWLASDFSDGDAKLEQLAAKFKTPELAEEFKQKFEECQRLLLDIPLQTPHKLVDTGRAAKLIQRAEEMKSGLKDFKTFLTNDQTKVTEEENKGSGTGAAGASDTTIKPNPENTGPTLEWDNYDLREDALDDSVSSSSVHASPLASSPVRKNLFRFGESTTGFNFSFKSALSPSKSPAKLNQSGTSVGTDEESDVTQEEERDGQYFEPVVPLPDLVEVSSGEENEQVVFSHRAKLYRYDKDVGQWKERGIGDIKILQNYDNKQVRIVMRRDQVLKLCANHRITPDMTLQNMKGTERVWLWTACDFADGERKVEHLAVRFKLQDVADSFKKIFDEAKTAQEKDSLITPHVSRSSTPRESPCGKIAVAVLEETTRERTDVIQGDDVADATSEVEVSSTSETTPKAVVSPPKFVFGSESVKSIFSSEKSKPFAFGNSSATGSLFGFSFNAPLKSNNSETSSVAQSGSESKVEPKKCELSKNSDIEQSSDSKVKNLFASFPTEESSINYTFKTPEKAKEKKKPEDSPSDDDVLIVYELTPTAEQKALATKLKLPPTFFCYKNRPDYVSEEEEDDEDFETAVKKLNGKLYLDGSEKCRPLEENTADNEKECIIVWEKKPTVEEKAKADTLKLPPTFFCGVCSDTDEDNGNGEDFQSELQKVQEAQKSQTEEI

B1: MBP-PTPIP51 (36–470 aa) (domain or fragment, UniProt Q96TC7 36-470, looked up)
chain: KRTQRHGRSQSLPNSLDYTQTSDPGRHVMLLRAVPGGAGDASVLPSLPREGQEKVLDRLDFVLTSLVALRREVEELRSSLRGLAGEIVGEVRCHMEENQRVARRRRFPFVRERSDSTGSSSVYFTASSGATFTDAESEGGYTTANAESDNERDSDKESEDGEDEVSCETVKMGRKDSLDLEEEAASGASSALEAGGSSGLEDVLPLLQQADELHRGDEQGKREGFQLLLNNKLVYGSRQDFLWRLARAYSDMCELTEEVSEKKSYALDGKEEAEAALEKGDESADCHLWYAVLCGQLAEHESIQRRIQSGFSFKEHVDKAIALQPENPMAHFLLGRWCYQVSHLSWLEKKTATALLESPLSATVEDALQSFLKAEELQPGFSKAGRVYISKCYRELGKNSEARWWMKLALELPDVTKEDLAIQKDLEELEVILRD
notes: PTPIP51 (RMDN3), residues 36-470, cloned into pMAL-c2; source: E. coli BL21 Star (DE3), purified (Ni-NTA, Amylose resin); not shown: MBP, N-terminal, kept
  binding result: binds
